The data set deals with c-Met-Fc fusion protein (UniProt P08581 25-932). In words: EMSA; EMSA: DNA (printed 200 nmol) with c-Met-Fc or BSA (printed 200 nmol) in 10 uL DPBS, 30 min, 37 C; native 4-20% TBE gel, SYBR Green II; pH not stated. The conditions noted are these: protein: recombinant; tags: Fc; chain copies: 2. (Mobility shift assays separate free from complexed probe on a gel.)

Experimental findings from publication PMC5882647, “Simultaneous Monitoring of Cell-surface Receptor and Tumor-targeted Photodynamic Therapy via TdT-initiated Poly-G-Quadruplexes” are described below.

c-Met-Fc fusion protein, sequence (P08581 25-932): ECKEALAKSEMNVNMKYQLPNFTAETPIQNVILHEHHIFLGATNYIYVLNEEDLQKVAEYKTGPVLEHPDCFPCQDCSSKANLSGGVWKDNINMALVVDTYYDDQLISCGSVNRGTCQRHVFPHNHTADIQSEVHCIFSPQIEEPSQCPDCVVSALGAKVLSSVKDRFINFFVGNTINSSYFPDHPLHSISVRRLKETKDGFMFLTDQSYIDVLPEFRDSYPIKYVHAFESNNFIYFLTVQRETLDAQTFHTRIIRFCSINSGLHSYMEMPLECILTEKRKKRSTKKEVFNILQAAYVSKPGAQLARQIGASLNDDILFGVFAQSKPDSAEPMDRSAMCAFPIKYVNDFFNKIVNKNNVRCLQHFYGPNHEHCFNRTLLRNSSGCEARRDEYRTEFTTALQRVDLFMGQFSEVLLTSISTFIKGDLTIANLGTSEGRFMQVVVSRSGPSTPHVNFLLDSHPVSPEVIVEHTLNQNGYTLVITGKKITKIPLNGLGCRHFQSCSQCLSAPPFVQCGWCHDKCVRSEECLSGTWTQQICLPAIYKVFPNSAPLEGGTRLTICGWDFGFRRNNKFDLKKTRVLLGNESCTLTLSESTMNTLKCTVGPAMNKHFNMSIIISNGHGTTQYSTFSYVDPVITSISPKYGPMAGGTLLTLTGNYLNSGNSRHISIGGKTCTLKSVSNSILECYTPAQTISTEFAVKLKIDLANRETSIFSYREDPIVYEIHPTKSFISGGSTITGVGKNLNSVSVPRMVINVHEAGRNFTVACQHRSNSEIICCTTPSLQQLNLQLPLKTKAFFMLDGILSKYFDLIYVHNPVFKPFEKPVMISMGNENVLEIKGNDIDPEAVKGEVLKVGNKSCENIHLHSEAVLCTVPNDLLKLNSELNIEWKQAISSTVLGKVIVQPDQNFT

B1: Lib-primer (LP) (ssDNA)
DNA: ATTTAGAGTGACGCAGCAGGACACGGTGGCTTAGTTTTTCAAGGCTTAGTTTTTTTTTTTTTTTTTTAATACAACCTCTCA
For B1, the binding result is reported as “no binding”.

B2: aptamer-primer (AP; SL1 aptamer + poly-T linker + primer) (ssDNA)
DNA: ATCAGGCTGGATGGTAGCTCGGTCGGGGTGGGTGGGTTGGCAAGTCTGATTTTTTTTTTTTTTTTTTAATACAACCTCTCA
Turning to B2, the binding result is listed as “binds”.
